From US20180030151A1 (MOGAM INSTITUTE FOR BIOMEDICAL RESEARCH, published 2018)
Like-named read-outs stand apart in the source and are kept apart here. Each block holds one binder with its values, some of them ahead of it.

Assays:
Experiment in all cases: cell-based or functional assay
[1] = target: T1, recombinant human TFPI (tissue factor pathway inhibitor) (human, UniProt P10646 29-304)
[2] = target: T1, recombinant human TFPI (tissue factor …); remark: listed apart in the source
[3] = target: T1, recombinant human TFPI (tissue factor …); remark: listed apart in the source
[4] = target: T1, recombinant human TFPI (tissue factor …); remark: listed apart in the source
[5] = target: T1, recombinant human TFPI (tissue factor …); remark: listed apart in the source
[6] = target: T1, recombinant human TFPI (tissue factor …); remark: listed apart in the source
[7] = target: T1, recombinant human TFPI (tissue factor …); remark: listed apart in the source
[8] = target: T1, recombinant human TFPI (tissue factor …); remark: listed apart in the source
[9] = target: T1, recombinant human TFPI (tissue factor …); remark: listed apart in the source
[10] = target: T1, recombinant human TFPI (tissue factor …); remark: listed apart in the source

- A405, TF/FVIIa/FX complex assay (FX 5 nM), Ab 1.56 nM [1]: 0.045
- A405, TF/FVIIa/FX complex assay (FX 5 nM), Ab 3.13 nM [1]: 0.046
- A405, TF/FVIIa/FX complex assay (FX 5 nM), Ab 6.25 nM [1]: 0.059
- A405, TF/FVIIa/FX complex assay (FX 5 nM), Ab 12.5 nM [1]: 0.141
- A405, TF/FVIIa/FX complex assay (FX 5 nM), Ab 25 nM [1]: 0.527
- A405, TF/FVIIa/FX complex assay (FX 5 nM), Ab 50 nM [1]: 0.743
- A405, TF/FVIIa/FX complex assay (FX 5 nM), Ab 100 nM [1]: 0.842
- FXa assay % of FXa alone, 2.5 nM Ab, 10 nM TFPI [2]: 10.8%
- FXa assay % of FXa alone, 5 nM Ab, 10 nM TFPI [2]: 45.5%
- FXa assay OD, 2.5 nM Ab, 10 nM TFPI [2]: 0.0825
- FXa assay OD, 5 nM Ab, 10 nM TFPI [2]: 0.346
- FXa assay OD, 10 nM Ab, 10 nM TFPI [2]: 0.536
- FXa assay OD, 20 nM Ab, 10 nM TFPI [2]: 0.618
- effect of inhibiting TFPI, FXa activity assay, Ab 10 nM [3]: ~70%
- effect of inhibiting TFPI, FXa activity assay, Ab 20 nM [3]: ~81%
- % of Normalized, TF/FVIIa/FX complex assay (FX 5 nM), Ab 1.56 nM [4]: 5.6%
- % of Normalized, TF/FVIIa/FX complex assay (FX 5 nM), Ab 3.13 nM [4]: 5.7%
- % of Normalized, TF/FVIIa/FX complex assay (FX 5 nM), Ab 6.25 nM [4]: 7.2%
- % of Normalized, TF/FVIIa/FX complex assay (FX 5 nM), Ab 12.5 nM [4]: 17.4%
- % of Normalized, TF/FVIIa/FX complex assay (FX 5 nM), Ab 25 nM [4]: 65.1%
- % of Normalized, TF/FVIIa/FX complex assay (FX 5 nM), Ab 50 nM [4]: 91.8%
- % of Normalized, TF/FVIIa/FX complex assay (FX 5 nM), Ab 100 nM [4]: 104%
B1: clone 3 (antibody, V domains shown)
VH: EVQLVESGGGLVKPGGSLRLSCAASGFTFSSYAMNWVRQAPGKGLEWVGTITTGGSHTYYADSVDGRFTISRDNAKNSLYLQMNSLRAEDTAVYYCARQDGNFLMDYWGQGTLVTVSS
VL: DVVMTQTPLSLPVTLGQPASISCKSSPSLLDVDGKTYLNWLQQRPGQSPKRLIYLVSKLDSGVPDRFTGSGSGTDFTLKISRVEAEDVGVYYCWQGTHFPFTFGQGTKVEIKR

- A405, TF/FVIIa/FX complex assay, Ab 1.56 nM [5]: 0.154
- A405, TF/FVIIa/FX complex assay, Ab 3.13 nM [5]: 0.177
- A405, TF/FVIIa/FX complex assay, Ab 6.25 nM [5]: 0.196
- A405, TF/FVIIa/FX complex assay, Ab 12.5 nM [5]: 0.29
- A405, TF/FVIIa/FX complex assay, Ab 25 nM [5]: 0.914
- A405, TF/FVIIa/FX complex assay, Ab 50 nM [5]: 0.895
- A405, TF/FVIIa/FX complex assay, Ab 100 nM [5]: 0.907
- FXa assay % of FXa alone, 2.5 nM Ab, 10 nM TFPI [6]: 9.2%
- FXa assay % of FXa alone, 5 nM Ab, 10 nM TFPI [6]: 41.9%
- FXa assay OD, 2.5 nM Ab, 10 nM TFPI [6]: 0.0745
- FXa assay OD, 5 nM Ab, 10 nM TFPI [6]: 0.338
- FXa assay OD, 10 nM Ab, 10 nM TFPI [6]: 0.543
- FXa assay OD, 20 nM Ab, 10 nM TFPI [6]: 0.637
- FXa assay % of FXa alone, 2.5 nM Ab, 10 nM TFPI [7]: 8%
- FXa assay % of FXa alone, 5 nM Ab, 10 nM TFPI [7]: 28.8%
- FXa assay % of FXa alone, 10 nM Ab, 10 nM TFPI [7]: 63.5%
- FXa assay % of FXa alone, 20 nM Ab, 10 nM TFPI [7]: 75.8%
- FXa assay OD, 2.5 nM Ab, 10 nM TFPI [7]: 0.065
- FXa assay OD, 5 nM Ab, 10 nM TFPI [7]: 0.234
- FXa assay OD, 10 nM Ab, 10 nM TFPI [7]: 0.516
- FXa assay OD, 20 nM Ab, 10 nM TFPI [7]: 0.616
- % of Normalized, TF/FVIIa/FX complex assay, Ab 1.56 nM [8]: 16.3%
- % of Normalized, TF/FVIIa/FX complex assay, Ab 3.13 nM [8]: 18.7%
- % of Normalized, TF/FVIIa/FX complex assay, Ab 6.25 nM [8]: 21.3%
- % of Normalized, TF/FVIIa/FX complex assay, Ab 12.5 nM [8]: 36.1%
- % of Normalized, TF/FVIIa/FX complex assay, Ab 25 nM [8]: 99.2%
- % of Normalized, TF/FVIIa/FX complex assay, Ab 50 nM [8]: 102%
- % of Normalized, TF/FVIIa/FX complex assay, Ab 100 nM [8]: 104%
- effect of inhibiting TFPI, FXa activity assay, Ab 10 nM [3]: ~67%
- effect of inhibiting TFPI, FXa activity assay, Ab 20 nM [3]: ~79%
- % of Normalized, TF/FVIIa/FX complex assay, Ab 1.56 nM [9]: 16.1%
- % of Normalized, TF/FVIIa/FX complex assay, Ab 3.13 nM [9]: 18.5%
- % of Normalized, TF/FVIIa/FX complex assay, Ab 6.25 nM [9]: 20.5%
- % of Normalized, TF/FVIIa/FX complex assay, Ab 12.5 nM [9]: 30.3%
- % of Normalized, TF/FVIIa/FX complex assay, Ab 25 nM [9]: 95.8%
- % of Normalized, TF/FVIIa/FX complex assay, Ab 50 nM [9]: 93.7%
- % of Normalized, TF/FVIIa/FX complex assay, Ab 100 nM [9]: 95%
- A405, TF/FVIIa/FX complex assay, Ab 1.56 nM [10]: 0.149
- A405, TF/FVIIa/FX complex assay, Ab 3.13 nM [10]: 0.172
- A405, TF/FVIIa/FX complex assay, Ab 6.25 nM [10]: 0.195
- A405, TF/FVIIa/FX complex assay, Ab 12.5 nM [10]: 0.33
- A405, TF/FVIIa/FX complex assay, Ab 25 nM [10]: 0.908
- A405, TF/FVIIa/FX complex assay, Ab 50 nM [10]: 0.938
- A405, TF/FVIIa/FX complex assay, Ab 100 nM [10]: 0.947
B2: clone A67 (antibody, V domains shown)
VH: EVQLVESGGGLVKPGGSLRLSCAASGFTFSSYAMNWVRQAPGKGLEWVSTITTGGSYTYYADSVEGRFTISRDNAKNSLYLQMNSLRAEDTAVYYCARQDGNFLMDYWGQGTLVTVSS
VL: DVVMTQTPLSLPVTLGQPASISCKSSQSLLDLDGKTYLNWLQQRPGQSPKRLIYLVSKLDSGVPDRFTGSGSGTDFTLKISRVEAEDVGVYYCWQGTHFPFTFGQGTKVEIKR
